According to US11649275B2, “Dual agonist fusion proteins” (Duke University, priority 2018, dated 2023):
“Also recorded” adds a separate entry of the source.

B1: GLP1-ELP: Single agonist control: GLP-1 analog fused to ELP of 120 VPGXaaG repeats, 4:1 Val:Ala; SEQ ID NO:16 (protein)
chain: AAHGEGTFTSDVSSYLEEQAAKEFIAWLVKGAGVGVPGVGVPGAGVPGVGVPGVGVPGVGVPGVGVPGAGVPGVGVPGVGVPGVGVPGVGVPGAGVPGVGVPGVGVPGVGVPGVGVPGAGVPGVGVPGVGVPGVGVPGVGVPGAGVPGVGVPGVGVPGVGVPGVGVPGAGVPGVGVPGVGVPGVGVPGVGVPGAGVPGVGVPGVGVPGVGVPGVGVPGAGVPGVGVPGVGVPGVGVPGVGVPGAGVPGVGVPGVGVPGVGVPGVGVPGAGVPGVGVPGVGVPGVGVPGVGVPGAGVPGVGVPGVGVPGVGVPGVGVPGAGVPGVGVPGVGVPGVGVPGVGVPGAGVPGVGVPGVGVPGVGVPGVGVPGAGVPGVGVPGVGVPGVGVPGVGVPGAGVPGVGVPGVGVPGVGVPGVGVPGAGVPGVGVPGVGVPGVGVPGVGVPGAGVPGVGVPGVGVPGVGVPGVGVPGAGVPGVGVPGVGVPGVGVPGVGVPGAGVPGVGVPGVGVPGVGVPGVGVPGAGVPGVGVPGVGVPGVGVPGVGVPGAGVPGVGVPGVGVPGVGVPGVGVPGAGVPGVGVPGVGVPGVGVPGVGVPGAGVPGVGVPGVGVPGVGVPGVGVPGAGVPGVGVPGVGVPG
B2: GLP1-ELP-FGF21: Fusion of GLP-1 analog, ELP (120 VPGXaaG repeats, 4:1 Val:Ala) and mutated murine FGF21; SEQ ID NO:15 (protein)
chain: AAHGEGTFTSDVSSYLEEQAAKEFIAWLVKGAGVGVPGVGVPGAGVPGVGVPGVGVPGVGVPGVGVPGAGVPGVGVPGVGVPGVGVPGVGVPGAGVPGVGVPGVGVPGVGVPGVGVPGAGVPGVGVPGVGVPGVGVPGVGVPGAGVPGVGVPGVGVPGVGVPGVGVPGAGVPGVGVPGVGVPGVGVPGVGVPGAGVPGVGVPGVGVPGVGVPGVGVPGAGVPGVGVPGVGVPGVGVPGVGVPGAGVPGVGVPGVGVPGVGVPGVGVPGAGVPGVGVPGVGVPGVGVPGVGVPGAGVPGVGVPGVGVPGVGVPGVGVPGAGVPGVGVPGVGVPGVGVPGVGVPGAGVPGVGVPGVGVPGVGVPGVGVPGAGVPGVGVPGVGVPGVGVPGVGVPGAGVPGVGVPGVGVPGVGVPGVGVPGAGVPGVGVPGVGVPGVGVPGVGVPGAGVPGVGVPGVGVPGVGVPGVGVPGAGVPGVGVPGVGVPGVGVPGVGVPGAGVPGVGVPGVGVPGVGVPGVGVPGAGVPGVGVPGVGVPGVGVPGVGVPGAGVPGVGVPGVGVPGVGVPGVGVPGAGVPGVGVPGVGVPGVGVPGVGVPGAGVPGVGVPGVGVPGVGVPGVGVPGAGVPGVGVPGVGVPGAYPIPDSSPLLQFGGQVRQRYLYTDDDQDTEAHLEIREDGTVVGAAHRSPESLLELKALKPGVIQILGVKASRFLCQQPDGALYGSPHFDPEACSFRERLLEDGYNVYQSEAHGLPLRLPQKDSPNQDATSWGPVRFLPMPGLLHEPQDQAGFLPPEPPDVGSSDPLSMVEGSQGRSPSYASG

What was measured:
[1] = Pharmacokinetic study of radiolabeled ELP fusion depots after s.c. injection; format: in vivo, mice; settings: for Cmax / TMAX / AUC / T1/2, ABS (absorption half-life): db/db mice, 1000 nmol/kg; for Cmax / TMAX / AUC / T1/2, ABS (absorption half-life) / steady plasma drug levels: single s.c. injection; for Cmax / TMAX: radiolabeled construct; for AUC: extrapolated to 16 days post-administration; for T1/2, ABS (absorption half-life): from slope of terminal linear regression; for R-squared, first-order model / R-squared, zero-order model / Regression model, first-order elimination (Log(y)): fit to terminal portion of plasma concentration vs time data; for steady plasma drug levels: out to day 10 / for at least 10 days
Procedure: Pharmacokinetic studies: Tyrosine residues on GLP1-ELP, ELP-FGF21, or GLP1-ELP-FGF21 fusion proteins were reacted with Na^125I radionuclide (Perkin Elmer) using Pierce Pre-Coated Iodination Tubes (Thermo Fisher Scientific) and the indirect method for iodination. Radiolabeled protein was purified from unreacted radionuclide with Zeba Spin Desalting Columns (Thermo Fisher Scientific). Activities of radiolabeled constructs were measured with an Atomlab 400 Dose Calibrator (Biodex, Shirley, N.Y.) and correlated to protein concentration. Mice received a single s.c. injection of radiolabeled fusion, and 10 μL blood samples were collected at frequent time points from the tail vein and stored at room temperature until radioactivity quantification. Sample counts were measured at the end of the study on a Wallac Wizard 1480 Automatic Gamma Counter (Perkin Elmer). An activity vs. count standard curve was used to convert sample counts to activities, and subsequently to moles of drug.
Pharmacokinetic analysis: The maximum serum concentration (Cmax) was recorded as observed, as well as time to reach Cmax (tmax). […] Absorption half-life (t1/2, abs) was estimated from the slope of the linear regression curve. When a drug administered at an extravascular site yields a terminal half-life greater than that resulting from an i.v. bolus, the terminal half-life reflects the absorption half-life.

[2] = LCST phase behavior characterization (turbidity OD350 vs temperature); format: physicochemical
Procedure: Phase behavior characterization: The lower critical solution temperature (LCST) phase transition behavior of ELP fusion proteins was evaluated by monitoring the OD350 of solutions in PBS as a function of temperature on a Cary 300 UV-visible spectrophotometer equipped with a multicell thermoelectric temperature controller (Agilent Technologies, Santa Clara, Calif.). Heating and cooling were set to a rate of 1° C./min. The Tt was defined as the temperature at which the optical density reached 50% of its maximal value.

GLP-1R = target: T1, GLP-1R (Homo sapiens, UniProt P43220); assay: cAMP production assay (GLP-1R agonism, HEK293 cells with cAMP-inducible luciferase reporter); format: cell-based; settings: fusion of GLP1 to ELP or ELP-FGF21
T1 construct: expressed in transfected cells; host or cells: HEK293
T1 sequence (P43220 24-463, species assumed): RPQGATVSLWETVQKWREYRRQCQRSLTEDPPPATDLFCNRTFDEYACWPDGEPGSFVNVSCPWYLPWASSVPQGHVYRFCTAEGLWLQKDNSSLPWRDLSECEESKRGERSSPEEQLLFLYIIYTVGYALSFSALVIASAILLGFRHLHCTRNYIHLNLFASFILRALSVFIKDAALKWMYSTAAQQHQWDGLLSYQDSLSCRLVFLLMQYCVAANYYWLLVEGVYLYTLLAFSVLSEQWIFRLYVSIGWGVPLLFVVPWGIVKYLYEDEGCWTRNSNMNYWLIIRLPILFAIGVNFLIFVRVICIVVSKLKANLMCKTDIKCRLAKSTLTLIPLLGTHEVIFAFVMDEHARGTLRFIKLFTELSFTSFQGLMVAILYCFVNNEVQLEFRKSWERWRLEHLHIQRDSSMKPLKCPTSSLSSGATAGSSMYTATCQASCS
Procedure: This time, however, the intended cleavage substrate was a GA leader instead of the AA leader. […] Data were fit to a three-parameter dose-response curve to determine EC50s.
Cells were seeded at 1×10^5 cells/cm^2 into 96 well plates and adhered overnight. […] Luminescence of the supernatant samples were measured on a Victor X3 Plate Reader (Perkin Elmer) and normalized to zero drug treatment control wells. Data were fit to a three-parameter dose-response curve to determine EC50s using GraphPad Prism 8 software.

db/db mice [3] = assay: Chronic dosing study, weekly s.c. for four weeks (GTT, % HbA1c, body weight, food intake); format: in vivo; settings: for GTT AUC: i.p. glucose tolerance test 3 days after the first dosing cycle; for fasting plasma insulin: prior to glucose challenge; for change in % HbA1c from days 0 to 27: weekly 1000 nmol/kg s.c. for four weeks; for weight gain on chronic treatment: weekly 1000 nmol/kg s.c.
Procedure: (§1) Animals: In vivo studies were conducted in accordance with the AAALAC-accredited Duke Institutional Animal Care and Use Committee. 5-week-old B6.BKS(D)-Lepr^db/J (“db/db”) male mice were purchased from Jackson Laboratory (Bar Harbor, Me.) and maintained on a 12 h/12 h light/dark cycle with ad libitum access to food (LabDiet 5053) and water. Animals were group-housed and allowed 1-week acclimation before stratification into control and treatment groups based on baseline ambient blood glucose levels and body weights.
(§2) ELP fusion treatments: ELP fusion proteins were administered at 150-200 μM concentration via injection into the subcutaneous (s.c.) space on the hind flank. Animals received either a single s.c. injection for short-term studies or weekly s.c. injections for chronic studies. The “1:1 mixture” treatment group received a single injection containing an equimolar mixture of GLP1-ELP and ELP-FGF21, with the indicated dose referring to the dose of each respective fusion in the mixture. Vehicle control refers to PBS.
Food Intake: For food intake studies, animals were group-housed 4 per cage, and food pellets were weighed every 1-2 days. Total cage food intake was calculated for each time increment, averaged per animal, and summed over the course of the study to yield a cumulative food intake per mouse. N=8 treatment groups were divided into 2 cages, allowing for an n=2 food intake standard error calculation.

db/db mice [4] = assay: GLP1-ELP control, single s.c. injection, glycemia and body weight for 10 days; format: in vivo; settings: 1000 nmol/kg single s.c.
Procedure: as §1, §2
(§3) Ambient blood glucose measurements: Blood glucose levels were measured from a tail vein puncture with an AlphaTRAK 2 Blood Glucose Meter (Zoetis, Parsippany-Troy Hills, N.J.) every 24 h, 1-2 h following onset of the light cycle. […] Areas under the curve (AUCs) were calculated with GraphPad Prism 8 software using the trapezoidal rule and setting a Y=0 baseline. […]

db/db mice [5] = assay: Short-term co-treatment pilot study, 48 h after single s.c. injection; format: in vivo; settings: 48 h post-injection, 1000 nmol/kg s.c.
Procedure: as §1, §2, §3

db/db mice [6] = assay: Single s.c. injection dose study of GLP1-ELP-FGF21 (ambient blood glucose, body weight); format: in vivo
Procedure: as §1, §2
Ambient blood glucose measurements: Blood glucose levels were measured from a tail vein puncture with an AlphaTRAK 2 Blood Glucose Meter (Zoetis, Parsippany-Troy Hills, N.J.) every 24 h, 1-2 h following onset of the light cycle. Data are presented as either raw values, or as a magnitude change from a mean baseline established from three independent measurements collected prior to treatment. Areas under the curve (AUCs) were calculated with GraphPad Prism 8 software using the trapezoidal rule and setting a Y=0 baseline. Treatment group AUCs were normalized to the vehicle-treated group where indicated.

db/db mice [7] = assay: Hypoglycemia safety check (16 h extended fast, glucose-stimulated insulin in GTT)
Procedure: Glucose tolerance test: Animals were fasted at the onset of the light cycle for 5 h with ad libitum access to water, then injected via intraperitoneal (i.p.) with 0.75 g/kg D-glucose. Blood glucose levels were measured from a tail snip with a Contour Blood Glucose Meter (Bayer, Leverkusen, Germany) at t=0 (before glucose injection), 10, 20, 30, 60, 90, and 120 min.
Extended fast blood glucose measurements: Animals were fasted for 16 h starting at 4:00 PM with ad libitum access to water, after which blood glucose levels were measured from the tail vein as described for ambient blood glucose measurements.
Blood parameters: 50 μL blood samples were collected from the tail veins following a 6 h fast using Microvette EDTA coated tubes (Sarstedt), which were placed on ice until centrifugation at 5000 rcf at 4° C. for 15 min. Plasma supernatants were stored at −80° C. until time of assay. Plasma insulin levels were quantified using the Mercodia Mouse Insulin ELISA, according to the manufacturers' instructions.

[8] = 5 h fast, 3 days after the first dosing cycle, 1000 nmol/kg s.c.
[9] = 3 days after the first dosing cycle

Molecule	Cmax [1] [nM]	TMAX [1] [H]	AUC [1] [NM*D]	T1/2, ABS (absorption half-life) [1] [D]	R-squared, first-order model [1]	R-squared, zero-order model [1]	Regression model, first-order elimination (Log(y)) [1]	steady plasma drug levels [1]	fasting blood glucose levels (db/db mice [3]; [8]) [mg/dL]	food intake (db/db mice [3]; four-week treatment period)	GTT AUC (db/db mice [3])	fasting plasma insulin (db/db mice [3]; [9])	change in % HbA1c from days 0 to 27 (db/db mice [3])	weight gain on chronic treatment (db/db mice [3]; four-week treatment period) [%]	also measured
B1	369 ± 14	4.8 ± 0.7	2023 ± 67	20.8 ± 3.2	0.61	0.58	Log(y) = −0.01628x + 2.263	around 100 nM	167 ± 11	significant reduction in food intake	outperformed ELP-FGF21 in improving glucose tolerance	significant increase in fasting plasma insulin	+1.0±0.2%	25.3±1.9	plasma levels of component of 1:1 mixed depot ([1]; 1:1 mixture, 1000 nmol/kg each, steady for 7 days): around 100 nM; Tt (transition temperature) ([2]; PBS, injection-relevant concentration of 200 μM): 27.5 °C; increase in GLP-1R EC50 compared to native GLP-1 (GLP-1R): approximately ten-fold; also recorded: ten-fold increase; % HbA1c elevation relative to control (db/db mice [3]; four-week study): significantly reduced % HbA1c elevation relative to control; effect on body weight / weight gain compared to vehicle (db/db mice [3]; four-week treatment period): significantly inhibited weight gain; weight gain compared to control mice (db/db mice [4]; daily for 10 days): significantly inhibited weight gain; ambient blood glucose levels after treatment (db/db mice [4]; reduced from >300 mg/dL for the duration of the 10 day study): < 200 mg/dL; body weight, % change from pre-injection weight (db/db mice [5]): −0.2±0.6%
B2	411 ± 51	10.5 ± 1.5	1961 ± 59	7.6 ± 1.1	0.85	0.81	Log(y) = −0.0416x + 2.431	~100 nM	125 ± 6.0	consuming chow at an equivalent rate to GLP1-ELP	significantly decreased GTT AUC compared to GLP1-ELP or ELP-FGF21	without a significant elevation in insulin	+0.3±0.2%	14.1±1.6	absorption half-life ([1]; linear regression fit to terminal portion of the data, 1000 nmol/kg s.c.): 182 ± 26.4 h; body weight % change on day 7 post-treatment (db/db mice [6]; 750 nmol/kg): −2.6±3.3%; blood glucose vs. time AUC (db/db mice [6]; 750 nmol/kg and 1000 nmol/kg, single s.c. injection, vs vehicle): Significant reductions; body weight % change on day 7 post-treatment (db/db mice [6]; 1000 nmol/kg): −2.7±3.7%; ambient blood glucose levels after treatment (db/db mice [6]; all doses, reduced from >300 mg/dL): < 150 mg/dL; persistence of blood glucose effects (db/db mice [6]; highest dose tested, 1000 nmol/kg): 8 days; persistence of blood glucose effects (db/db mice [6]; lowest dose, 250 nmol/kg): 4 days; duration of therapeutic drug levels and protection from hyperglycemia and weight gain (db/db mice [6]; single injection): > 7 days; reduction of body weights (maximum) (db/db mice [6]; two highest doses tested (750 and 1000 nmol/kg)): up to 7.2±2.3%; reversibility of phase change behavior ([2]; temperature ramped up to 37° C., then down to 20° C.): reversible; fasting blood glucose levels (db/db mice [3]; GTT 3 days following the final treatment): 92.7 ± 8.3 mg/dL; negative net weight gain values persisting through (db/db mice [3]; weekly dosing): 12 days; blood glucose levels after overnight 16 h fast (db/db mice [7]; 1000 nmol/kg s.c., fast begun 48 h post-treatment, threshold of hypoglycemia): 50 to 55 mg/dL; ad libitum-fed blood glucose levels (db/db mice [7]; 48 h post-treatment, 1000 nmol/kg s.c., vs vehicle): significant reductions; blood glucose levels during recovery (return to pre-injection baselines) (db/db mice [7]; t=60 to t=120 min post-challenge in GTT): -100 mg/dL
